Measured values from publication PMC6778148 (2019).

Assays:
[1] = target: T1, PSD-95-12, purified tandem PDZ domains of PSD-95 (rat, UniProt P31016 61-249); assay: SPR
[2] = target: PSD-93-12, purified tandem PDZ domains of PSD-93 (rat, UniProt Q63622 93-282); assay: competition against divalent ligand
[3] = target: SAP97-12, purified tandem PDZ domains of SAP97 (rat, UniProt Q62696 220-408); assay: competition against divalent ligand
[4] = target: T2, SAP102-12, purified tandem PDZ domains of SAP102 (rat, UniProt Q62936 145-333); assay: competition against divalent ligand
T2 chain: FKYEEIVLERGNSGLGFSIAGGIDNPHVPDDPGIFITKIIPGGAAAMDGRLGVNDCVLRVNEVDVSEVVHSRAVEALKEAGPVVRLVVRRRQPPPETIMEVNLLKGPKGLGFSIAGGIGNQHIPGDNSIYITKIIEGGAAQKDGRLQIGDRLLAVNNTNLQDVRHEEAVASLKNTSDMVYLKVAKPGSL

[5] = target: T1, PSD-95-12, purified tandem PDZ domains …
[6] = target: T1, PSD-95-12, purified tandem PDZ domains …; assay: ITC

T1 sequence (P31016 61-249): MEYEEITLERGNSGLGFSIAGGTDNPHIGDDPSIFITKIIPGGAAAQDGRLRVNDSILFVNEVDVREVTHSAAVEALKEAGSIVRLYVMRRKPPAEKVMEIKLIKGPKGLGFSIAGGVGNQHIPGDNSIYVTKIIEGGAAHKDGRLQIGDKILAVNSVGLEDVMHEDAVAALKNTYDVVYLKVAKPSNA
Chain of PSD-93-12, purified tandem PDZ domains of PSD-93 (Q63622 93-282): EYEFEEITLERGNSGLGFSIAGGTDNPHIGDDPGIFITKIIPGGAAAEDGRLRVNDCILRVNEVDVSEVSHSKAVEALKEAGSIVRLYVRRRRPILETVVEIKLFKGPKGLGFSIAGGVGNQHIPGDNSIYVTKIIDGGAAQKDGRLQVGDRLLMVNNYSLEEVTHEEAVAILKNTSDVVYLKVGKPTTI
Chain of SAP97-12, purified tandem PDZ domains of SAP97 (Q62696 220-408): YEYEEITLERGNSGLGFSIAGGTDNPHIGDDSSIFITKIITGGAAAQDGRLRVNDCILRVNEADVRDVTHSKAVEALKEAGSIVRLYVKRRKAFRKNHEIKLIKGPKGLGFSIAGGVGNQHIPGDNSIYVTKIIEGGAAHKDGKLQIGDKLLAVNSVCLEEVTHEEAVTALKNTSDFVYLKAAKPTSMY

B1: biotinylated Xph20 (designed binder)
chain: SSVSSVPTKLEVVAATPTSLLISWDAVAKNVKVGYYRITYGETGGNSPVQEFTVPGSSSTATISGLKPGVDYTITVYANGVLSKMVLPISINYRT
modifications: biotin on the biotin acceptor peptide
[1]
  koff: 0.068 s⁻¹

B2: Xph20-ETWV (designed binder)
chain: MASHHHHHHHHHHENLYFQSGSGSSVSSVPTKLEVVAATPTSLLISWDAVAKNVKVGYYRITYGETGGNSPVQEFTVPGSSSTATISGLKPGVDYTITVYANGVLSKMVLPISINYRTLEGGSGGSGGSGGSGGSGGSGGSGGSGGSGGSGGSGGSGTETWV
[2]
  Ki: 261 nM
[3]
  Ki: 900 nM
[4]
  Ki: 1440 nM
[5]
  Ki: 36 nM

B3: Xph15, evolved ^10FN3 domain (recombinant) (designed binder)
chain: SSVSSVPTKLEVVAATPTSLLISWDAGPRNVSYYRITYGETGGNSPVQEFTVPGSSSTATISGLSPGVDYTITVYASGHVSTLMTPISINYRT
[6]
  Kd: 2200 nM

B4: Xph18, evolved ^10FN3 domain (recombinant) (designed binder)
chain: SSVSSVPTKLEVVAATPTSLLISWDAHSRMAWVNYYRITYGETGGNSPVQEFTVPGSSSTATISGLSPGVDYTITVYANGGGFRRGMAPISINYRT
[6]
  Kd: 820 nM
